Test results from patent KR20210063070A (dated 2021).
Substitutions are numbered along the chain they refer to. Numbers in names are those of the source.

T1: recombinant mouse B7-H3 protein with C-terminal His tag (Sino Biological, 50973-M08H) (mouse, UniProt Q8VE98 29-244)
T1 construct: Bought; also called 마우스 B7-H3
T1 sequence (looked up): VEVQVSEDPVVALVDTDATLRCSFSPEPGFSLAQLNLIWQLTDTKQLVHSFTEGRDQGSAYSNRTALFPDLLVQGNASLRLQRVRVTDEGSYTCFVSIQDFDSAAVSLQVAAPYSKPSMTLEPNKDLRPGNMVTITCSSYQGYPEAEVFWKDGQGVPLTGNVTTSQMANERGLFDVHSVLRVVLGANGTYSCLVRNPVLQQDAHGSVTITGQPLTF

T2: human B7-H3 expressed on the surface of human cancer cell lines (human, UniProt Q5ZPR3 29-534)
T2 construct: whole, on cells; also called 세포 표면 발현 B7-H3; CD276
T2 sequence (looked up): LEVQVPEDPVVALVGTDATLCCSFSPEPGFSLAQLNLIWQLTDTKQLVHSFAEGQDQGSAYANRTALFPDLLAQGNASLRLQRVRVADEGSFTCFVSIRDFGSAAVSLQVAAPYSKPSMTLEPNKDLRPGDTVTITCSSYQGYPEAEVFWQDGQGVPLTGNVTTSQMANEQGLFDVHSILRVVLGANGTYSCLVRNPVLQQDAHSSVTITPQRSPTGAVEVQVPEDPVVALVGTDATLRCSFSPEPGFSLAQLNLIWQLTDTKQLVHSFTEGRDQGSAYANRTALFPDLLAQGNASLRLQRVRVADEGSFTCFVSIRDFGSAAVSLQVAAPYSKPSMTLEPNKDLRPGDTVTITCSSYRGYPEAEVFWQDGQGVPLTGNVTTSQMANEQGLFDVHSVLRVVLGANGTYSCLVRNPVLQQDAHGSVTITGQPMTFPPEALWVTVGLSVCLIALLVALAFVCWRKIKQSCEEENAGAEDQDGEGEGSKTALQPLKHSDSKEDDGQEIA

T3: mouse B7-H3 expressed on the surface of mouse cancer cell lines (CT26, B16F10, TC-1) (mouse, UniProt Q8VE98 29-316)
T3 construct: whole, on cells; also called 세포 표면 발현 마우스 B7-H3
T3 sequence (looked up): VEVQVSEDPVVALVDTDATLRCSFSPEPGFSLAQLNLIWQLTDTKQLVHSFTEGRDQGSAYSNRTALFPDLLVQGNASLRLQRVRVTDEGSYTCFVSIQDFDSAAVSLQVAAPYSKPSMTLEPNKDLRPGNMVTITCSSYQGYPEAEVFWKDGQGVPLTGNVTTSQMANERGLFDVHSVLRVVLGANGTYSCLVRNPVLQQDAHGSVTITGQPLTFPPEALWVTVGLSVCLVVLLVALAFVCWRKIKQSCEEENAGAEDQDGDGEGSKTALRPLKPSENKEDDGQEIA

B1: anti-B7-H3 antibody B5 (full IgG form) (antibody, V domains shown)
VH: EVQLLESGGGLVQPGGSLRLSCAASGFTFSDYAMSWVRQAPGKGLEWVSSISSGSGSIYYADSVKGRFTISRDNSKNTLYLQMNSLRAEDTAVYYCAKNLIPLDYWGQGTLVTVSS
VL: QSVLTQPPSASGTPGQRVTISCSGSSSNIGSNAVSWYQQLPGTAPKLLIYYNSHRPSGVPDRFSGSKSGTSASLAISGLRSEDEADYYCGSWDASLNAYVFGGGTKLTVLG
B2: anti-B7-H3 antibody D8G (full IgG form) (antibody, V domains shown)
VH: EVQLLESGGGLVQPGGSLRLSCAASGFTFSSYSMSWVRQAPGKGLEWVSGIYSDGSNTYYADSVKGRFTISRDNSKNTLYLQMNSLRAEDTAVYYCAKMLHRFDYWGQGTLVTVSS
VL: B1 VL with A33S, S35T, Y51A, N52D, H54Q, S91T, A94S
B3: anti-B7-H3 antibody F6V (full IgG form) (antibody, V domains shown)
VH: EVQLLESGGGLVQPGGSLRLSCAASGFTFSDYAMSWVRQAPGKGLEWVSGISPGGSNTYYADSVKGRFTISRDNSKNTLYLQMNSLRAEDTAVYYCAKDAWIARLLLFDYWGQGTLVTVSS
VL: B1 VL with S35T, S53N, H54K, S91T, A94D, N97S, A98G
B4: anti-B7-H3 antibody C4I (full IgG form) (antibody, V domains shown)
VH: B1 VH with D31G, A33Y, S50L, S53P, G54S, N99G, I101T, P102K, L103F
VL: B1 VL with S23T, A33D, Y51A, A94D, N97S, A98G
B5: anti-B7-H3 antibody 10F11 (full IgG form) (antibody, V domains shown)
VH: B2 VH with S33G, D54G, N57S, T58K, M99N, L100R, H101L
VL: B1 VL with S23T, A33S, S35T, Y51S, N52D, S91T

target: T1, recombinant mouse B7-H3 protein with …; assay: ELISA, IgG on coated recombinant mouse B7-H3-His

| binding result | Binder |
| --- | --- |
| binds | B1 |
| binds | B2 |
| binds | B3 |
| binds | B4 |
| binds | B5 |

target: T2, human B7-H3 expressed on the surface of …; assay: flow cytometry on human cancer cell lines that express B7-H3

| binding result | Binder |
| --- | --- |
| binds | B1 |
| binds | B2 |
| binds | B3 |
| binds | B4 |
| binds | B5 |

target: T3, mouse B7-H3 expressed on the surface of …; assay: flow cytometry on CT26, B16F10 and TC-1 cells, 10 ㎍/㎖

| binding result | Binder |
| --- | --- |
| binds | B1 |
| binds | B2 |
| binds | B3 |
| binds | B4 |
| binds | B5 |
